The values below come from patent US20220119490A1 (Genentech, published 2022).

What all share (experiment): cell surface interaction assay: query ECD tetramerised with fluorescent streptavidin on transfected cells, immunofluorescence
Assay [1] deals with T1, UNC5A (human, UniProt Q6ZN44).
T1 construct: expressed on cells; also called UNC5A expressed on cells
T1 sequence (cell-surface-expressed binding partner, looked up): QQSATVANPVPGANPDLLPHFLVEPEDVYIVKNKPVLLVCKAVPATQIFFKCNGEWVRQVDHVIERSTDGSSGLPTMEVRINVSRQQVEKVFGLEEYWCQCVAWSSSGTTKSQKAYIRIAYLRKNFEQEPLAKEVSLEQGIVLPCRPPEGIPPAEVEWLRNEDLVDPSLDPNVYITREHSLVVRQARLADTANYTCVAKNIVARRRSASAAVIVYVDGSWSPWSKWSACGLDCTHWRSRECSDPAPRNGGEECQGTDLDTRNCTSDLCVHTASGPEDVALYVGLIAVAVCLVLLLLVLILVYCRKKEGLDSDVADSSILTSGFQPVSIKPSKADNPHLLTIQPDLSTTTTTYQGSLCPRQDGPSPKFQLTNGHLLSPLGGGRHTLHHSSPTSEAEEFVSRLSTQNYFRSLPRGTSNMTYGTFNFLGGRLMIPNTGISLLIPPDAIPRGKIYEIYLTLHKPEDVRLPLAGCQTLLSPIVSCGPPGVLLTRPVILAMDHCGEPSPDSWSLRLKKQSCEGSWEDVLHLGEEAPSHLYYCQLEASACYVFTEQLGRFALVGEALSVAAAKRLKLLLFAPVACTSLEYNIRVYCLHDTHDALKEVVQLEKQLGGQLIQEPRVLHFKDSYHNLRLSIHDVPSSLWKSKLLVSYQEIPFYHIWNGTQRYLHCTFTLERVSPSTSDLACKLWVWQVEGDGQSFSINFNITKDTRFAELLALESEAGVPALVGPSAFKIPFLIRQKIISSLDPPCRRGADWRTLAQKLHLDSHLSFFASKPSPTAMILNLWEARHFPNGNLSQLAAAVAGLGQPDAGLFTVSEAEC

Assay [2] concerns the target T2, UNC5D (human, UniProt Q6UXZ4).
T2 construct: expressed on cells; also called UNC5D expressed on cells
T2 sequence (cell-surface-expressed binding partner, looked up): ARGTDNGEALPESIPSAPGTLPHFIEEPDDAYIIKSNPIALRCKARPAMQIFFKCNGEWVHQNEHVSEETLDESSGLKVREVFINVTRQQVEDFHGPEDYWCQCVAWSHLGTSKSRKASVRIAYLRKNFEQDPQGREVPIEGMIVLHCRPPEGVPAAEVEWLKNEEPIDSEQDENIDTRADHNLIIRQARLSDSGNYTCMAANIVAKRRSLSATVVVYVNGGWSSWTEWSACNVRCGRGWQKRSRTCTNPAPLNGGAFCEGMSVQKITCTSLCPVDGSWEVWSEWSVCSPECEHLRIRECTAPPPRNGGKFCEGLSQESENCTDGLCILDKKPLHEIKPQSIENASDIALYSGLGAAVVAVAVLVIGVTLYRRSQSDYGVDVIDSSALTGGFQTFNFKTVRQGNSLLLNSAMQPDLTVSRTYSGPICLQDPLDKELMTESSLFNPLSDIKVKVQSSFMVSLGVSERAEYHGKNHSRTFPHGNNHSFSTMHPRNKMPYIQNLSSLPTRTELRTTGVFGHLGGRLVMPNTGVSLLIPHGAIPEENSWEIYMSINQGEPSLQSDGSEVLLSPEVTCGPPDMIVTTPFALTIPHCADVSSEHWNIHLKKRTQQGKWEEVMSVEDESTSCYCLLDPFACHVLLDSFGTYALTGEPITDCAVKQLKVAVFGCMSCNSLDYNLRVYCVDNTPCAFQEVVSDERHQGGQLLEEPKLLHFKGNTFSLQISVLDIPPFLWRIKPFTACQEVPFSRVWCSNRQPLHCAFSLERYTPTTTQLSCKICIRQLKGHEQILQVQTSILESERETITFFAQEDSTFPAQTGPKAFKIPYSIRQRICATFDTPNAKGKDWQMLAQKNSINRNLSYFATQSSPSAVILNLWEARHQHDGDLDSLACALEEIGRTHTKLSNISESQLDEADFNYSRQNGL

In assay [3] the target is T3, MDGA1 (human, UniProt Q8NFP4, biotinylated).
T3 construct: extracellular domain; also called MAM domain-containing glycosylphosphatidylinositol anchor protein 1; soluble query
T3 sequence (soluble query ectodomain, looked up): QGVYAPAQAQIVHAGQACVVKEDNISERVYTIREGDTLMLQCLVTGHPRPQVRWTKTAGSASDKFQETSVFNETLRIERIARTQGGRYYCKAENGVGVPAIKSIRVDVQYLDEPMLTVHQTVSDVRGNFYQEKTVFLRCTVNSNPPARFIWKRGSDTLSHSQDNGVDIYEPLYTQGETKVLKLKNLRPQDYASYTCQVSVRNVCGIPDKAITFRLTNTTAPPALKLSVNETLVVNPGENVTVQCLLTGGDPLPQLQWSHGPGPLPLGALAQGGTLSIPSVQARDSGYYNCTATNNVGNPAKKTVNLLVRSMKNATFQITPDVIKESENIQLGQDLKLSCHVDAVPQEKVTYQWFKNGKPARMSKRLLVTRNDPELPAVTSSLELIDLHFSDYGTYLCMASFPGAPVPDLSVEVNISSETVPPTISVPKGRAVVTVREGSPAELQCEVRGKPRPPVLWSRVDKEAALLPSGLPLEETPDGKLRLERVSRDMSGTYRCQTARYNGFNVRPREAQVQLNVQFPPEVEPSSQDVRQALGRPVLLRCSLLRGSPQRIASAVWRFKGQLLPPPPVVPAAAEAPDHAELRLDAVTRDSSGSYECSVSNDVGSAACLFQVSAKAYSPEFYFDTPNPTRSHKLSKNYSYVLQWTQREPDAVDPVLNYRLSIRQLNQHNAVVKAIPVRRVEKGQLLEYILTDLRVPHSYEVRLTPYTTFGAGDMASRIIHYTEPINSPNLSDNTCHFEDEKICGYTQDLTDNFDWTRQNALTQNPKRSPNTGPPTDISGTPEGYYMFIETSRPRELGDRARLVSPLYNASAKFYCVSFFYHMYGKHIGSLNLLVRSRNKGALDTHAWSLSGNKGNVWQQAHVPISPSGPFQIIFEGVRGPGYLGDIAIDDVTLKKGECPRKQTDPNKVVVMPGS

B1: FLRT3 (receptor, human, UniProt Q9NZU0 29-528, looked up)
soluble query ectodomain: KSCPSVCRCDAGFIYCNDRFLTSIPTGIPEDATTLYLQNNQINNAGIPSDLKNLLKVERIYLYHNSLDEFPTNLPKYVKELHLQENNIRTITYDSLSKIPYLEELHLDDNSVSAVSIEEGAFRDSNYLRLLFLSRNHLSTIPWGLPRTIEELRLDDNRISTISSPSLQGLTSLKRLVLDGNLLNNHGLGDKVFFNLVNLTELSLVRNSLTAAPVNLPGTNLRKLYLQDNHINRVPPNAFSYLRQLYRLDMSNNNLSNLPQGIFDDLDNITQLILRNNPWYCGCKMKWVRDWLQSLPVKVNVRGLMCQAPEKVRGMAIKDLNAELFDCKDSGIVSTIQITTAIPNTVYPAQGQWPAPVTKQPDIKNPKLTKDHQTTGSPSRKTITITVKSVTSDTIHISWKLALPMTALRLSWLKLGHSPAFGSITETIVTGERSEYLVTALEPDSPYKVCMVPMETSNLYLFDETPVCIETETAPLRMYNPTTTLNREQEKEPYKNPNLP
modifications: biotinylated
notes: extracellular domain; also called soluble query
As to B1, the binding result in assay [1] and in assay [2] was “binds” each time.

B2: NLGN3 (receptor, human, UniProt Q9NZ94 38-848, looked up)
cell-surface-expressed binding partner: QAPAPTVNTHFGKLRGARVPLPSEILGPVDQYLGVPYAAPPIGEKRFLPPEPPPSWSGIRNATHFPPVCPQNIHTAVPEVMLPVWFTANLDIVATYIQEPNEDCLYLNVYVPTEDVKRISKECARKPNKKICRKGGSGAKKQGEDLADNDGDEDEDIRDSGAKPVMVYIHGGSYMEGTGNMIDGSILASYGNVIVITLNYRVGVLGFLSTGDQAAKGNYGLLDQIQALRWVSENIAFFGGDPRRITVFGSGIGASCVSLLTLSHHSEGLFQRAIIQSGSALSSWAVNYQPVKYTSLLADKVGCNVLDTVDMVDCLRQKSAKELVEQDIQPARYHVAFGPVIDGDVIPDDPEILMEQGEFLNYDIMLGVNQGEGLKFVEGVVDPEDGVSGTDFDYSVSNFVDNLYGYPEGKDTLRETIKFMYTDWADRDNPETRRKTLVALFTDHQWVEPSVVTADLHARYGSPTYFYAFYHHCQSLMKPAWSDAAHGDEVPYVFGVPMVGPTDLFPCNFSKNDVMLSAVVMTYWTNFAKTGDPNKPVPQDTKFIHTKANRFEEVAWSKYNPRDQLYLHIGLKPRVRDHYRATKVAFWKHLVPHLYNLHDMFHYTSTTTKVPPPDTTHSSHITRRPNGKTWSTKRPAISPAYSNENAQGSWNGDQDAGPLLVENPRDYSTELSVTIAVGASLLFLNVLAFAALYYRKDKRRQEPLRQPSPQRGAGAPELGAAPEEELAALQLGPTHHECEAGPPHDTLRLTALPDYTLTLRRSPDDIPLMTPNTITMIPNSLVGLQTLHPYNTFAAGFNSTGLPHSHSTTRV
notes: expressed on cells; also called NLGN3 expressed on cells
With B2, the binding result in assay [3] is listed as “binds”.
